Test results as given in patent US20220073621A1 (EUCURE BEIJING BIOPHARMA, published 2022).

Biological target: T1, hPD-L1-His (human, UniProt Q9NZQ7 19-238)
T1 construct: Bought protein; also called hPD-L1-His (manufactured by Edison); not shown: His tag
Assay: SPR (Biacore T200), antibody on Protein A chip, hPD-L1-His injected, 1:1 fit
Description: Subsequently, the binding affinity of the anti-PD-L1 chimeric antibody, humanized antibody, and marketed control antibody to hPD-L1-His (manufactured by Edison) were determined by surface plasmon resonance (Biacore T200 biosensor, Biacore, INC, Piscataway N.J.) equipped with pre-immobilized Protein A sensor chips.
The detection results were read after the chip was regenerated with pH 2.0 glycine (30 μl/min, 10-20 s). Kinetic association rates (kon) and dissociation rates (koff) were obtained simultaneously by fitting the data globally to a 1:1 Langmuir binding model (Karlsson, R. Roos, H. Fagerstam, L. Petersson, B., 1994. Methods Enzymology 6. 99-110) using Biacore T200 Evaluation Software 3.0. Affinities were deduced from the quotient of the kinetic rate constants (KD=koff/kon).

T1 sequence (Q9NZQ7 19-238 limits assumed): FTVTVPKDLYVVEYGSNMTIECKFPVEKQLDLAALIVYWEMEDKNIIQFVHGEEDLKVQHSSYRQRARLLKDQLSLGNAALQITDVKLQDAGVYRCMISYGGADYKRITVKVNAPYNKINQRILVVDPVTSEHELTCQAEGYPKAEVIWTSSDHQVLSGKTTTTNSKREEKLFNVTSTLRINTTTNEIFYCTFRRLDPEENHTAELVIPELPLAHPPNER

| Binder | Kd [nM] | koff [s⁻¹] | kon [M⁻¹ s⁻¹] |
| --- | --- | --- | --- |
| 6A11-H2K3-IgG1 (antibody, V domains shown) VH: EVQLVESGGGLVQPGGSLRLSCAASGFTFSSFGMHWVRQAPGKGLEWVSYISSGSNTIYYADTVKGRFTISRDNAKNSLYLQMNSLRAEDTAVYYCTRNGYDGWYAMDYWGQGTTVTVSS VL: EIVLTQSPATLSASPGERATLSCSASSSVSYIHWFQQKPGQSPRRWIYDTSKLASGIPARFSGSGSGTDYTLTISSMEPEDFATYYCQQWSTNPFTFGQGTKLEIKR | 8.07 | 0.0013 | 162000 |
| 6A11-H1K4-IgG1 (antibody, V domains shown) VH: EVQLVESGGGLVQPGGSLRLSCAASGFTFSSFGMHWVRQAPGKGLEWVSYISSGSNTIYYADTVKGRFTISRDNAKNSLYLQMNSLRAEDTAVYYCARNGYDGWYAMDYWGQGTTVTVSS VL: EIVLTQSPATLSASPGERATLSCSASSSVSYIHWFQQKPGQSPRRWIYDTSKLASGIPARFSGSGSGTSYTLTISSMEPEDAATYYCQQWSTNPFTFGQGTKLEIKR | 8.29 | 0.00124 | 149000 |
| 6A11-H3K3-IgG1 (antibody, V domains shown) VH: EVQLVESGGGLVQPGGSRRLSCAASGFTFSSFGMHWVRQAPGKGLEWVAYISSGSNTIYYADTVKGRFTISRDNAKNSLYLQMNSLRAEDTAVYYCTRNGYDGWYAMDYWGQGTTVTVSS VL: EIVLTQSPATLSASPGERATLSCSASSSVSYIHWFQQKPGQSPRRWIYDTSKLASGIPARFSGSGSGTDYTLTISSMEPEDFATYYCQQWSTNPFTFGQGTKLEIKR | 4.91 | 0.0013 | 265000 |
| 6A11-H4K3-IgG1 (antibody, V domains shown) VH: EVQLVESGGGLVQPGGSRRLSCAASGFTFSSFGMHWVRQAPGKGLEWVAYISSGSNTIYYADTVKGRFTISRDNPKNSLYLQMNSLRAEDTAIYYCTRNGYDGWYAMDYWGQGTTVTVSS VL: EIVLTQSPATLSASPGERATLSCSASSSVSYIHWFQQKPGQSPRRWIYDTSKLASGIPARFSGSGSGTDYTLTISSMEPEDFATYYCQQWSTNPFTFGQGTKLEIKR | 7.09 | 0.00165 | 233000 |
| 6A11-H3K4-IgG1 (antibody, V domains shown) VH: EVQLVESGGGLVQPGGSRRLSCAASGFTFSSFGMHWVRQAPGKGLEWVAYISSGSNTIYYADTVKGRFTISRDNAKNSLYLQMNSLRAEDTAVYYCTRNGYDGWYAMDYWGQGTTVTVSS VL: EIVLTQSPATLSASPGERATLSCSASSSVSYIHWFQQKPGQSPRRWIYDTSKLASGIPARFSGSGSGTSYTLTISSMEPEDAATYYCQQWSTNPFTFGQGTKLEIKR | 6.52 | 0.00168 | 258000 |
| 7E4-H2K2-IgG1 (antibody, V domains shown) VH: QVQLVQSGAEVKKPGASVKVSCKASGFKFTDYAIHWVRQAPGKSLEWMGVISIYYGEASYNQKFKDRVTLTVDTSASTAYMELSSLRSEDTAVYYCAREDYYGSSSYFDYWGQGTLVTVSS VL: DNVLTQSPSFLSASVGDRVTMTCSASSSVSSSYLHWYQQKPGASPKPLIHRTSNLASGVPSRFSGSGSGTEFTLTISSLQPEDFATYYCQQWSGYPYTFGGGTKLEIK | 21.9 | 0.0027 | 123000 |
| 7E4-H2K1-IgG1 (antibody, V domains shown) VH: QVQLVQSGAEVKKPGASVKVSCKASGFKFTDYAIHWVRQAPGKSLEWMGVISIYYGEASYNQKFKDRVTLTVDTSASTAYMELSSLRSEDTAVYYCAREDYYGSSSYFDYWGQGTLVTVSS VL: DNQLTQSPSFLSASVGDRVTITCSASSSVSSSYLHWYQQKPGAAPKPLIHRTSNLASGVPSRFSGSGSGTEFTLTISSLQPEDFATYYCQQWSGYPYTFGGGTKLEIK | 27 | 0.00344 | 128000 |
| 7E4-H3K3-IgG1 (antibody, V domains shown) VH: QVQLVQSGAEVVKPGASVKISCKGSGFKFTDYAIHWVRQAPGKSLEWMGVISIYYGEASYNQKFKDKVTLTVDTSASTAYMELSSLRSEDTAIYYCAREDYYGSSSYFDYWGQGTLLTVSS VL: ENVLTQSPSFLSASVGDRVTMTCSASSSVSSSYLHWYQQKSGASPKPLIHRTSNLASGVPSRFSGSGSGTEYTLTISSVQPEDFATYYCQQWSGYPYTFGGGTKLEIK | 14.5 | 0.00218 | 150000 |
| 7E4-H3K1-IgG1 (antibody, V domains shown) VH: QVQLVQSGAEVVKPGASVKISCKGSGFKFTDYAIHWVRQAPGKSLEWMGVISIYYGEASYNQKFKDKVTLTVDTSASTAYMELSSLRSEDTAIYYCAREDYYGSSSYFDYWGQGTLLTVSS VL: DNQLTQSPSFLSASVGDRVTITCSASSSVSSSYLHWYQQKPGAAPKPLIHRTSNLASGVPSRFSGSGSGTEFTLTISSLQPEDFATYYCQQWSGYPYTFGGGTKLEIK | 23.9 | 0.00352 | 147000 |
| 33-10C9-mHvKv-IgG1-N297A (antibody, V domains shown) VH: QVQLQQPGAELVKPGSSVKLSCKASGYTFTTYYIYWVKQRPGQGLEWIGGINPYNGGTSFNEKFESKATLTVDISSSTAFMQLSSLTSEDSAVYYCTRDGNYVDYWGQGTTLTVSS VL: QIVLTQSPAIMSASPGEKVTITCSASSTVSYVHWLQQKPDTSPKLWIYSTSNLASGVPARFSGSGSGTSYSLTISRMEAEDAATYYCQQRSSSPPTFGSGTKLEIK | 1.6 | 0.000196 | 122000 |

The remaining lines, values ahead:

| Kd [nM] | koff [s⁻¹] | kon [M⁻¹ s⁻¹] | Binder |
| --- | --- | --- | --- |
| 7.01 | 0.00153 | 218000 | 6A11-H2K4-IgG1 (antibody, V domains shown) VH: EVQLVESGGGLVQPGGSLRLSCAASGFTFSSFGMHWVRQAPGKGLEWVSYISSGSNTIYYADTVKGRFTISRDNAKNSLYLQMNSLRAEDTAVYYCTRNGYDGWYAMDYWGQGTTVTVSS VL: EIVLTQSPATLSASPGERATLSCSASSSVSYIHWFQQKPGQSPRRWIYDTSKLASGIPARFSGSGSGTSYTLTISSMEPEDAATYYCQQWSTNPFTFGQGTKLEIKR |
| 7.8 | 0.00113 | 145000 | 6A11-H1K3-IgG1 (antibody, V domains shown) VH: EVQLVESGGGLVQPGGSLRLSCAASGFTFSSFGMHWVRQAPGKGLEWVSYISSGSNTIYYADTVKGRFTISRDNAKNSLYLQMNSLRAEDTAVYYCARNGYDGWYAMDYWGQGTTVTVSS VL: EIVLTQSPATLSASPGERATLSCSASSSVSYIHWFQQKPGQSPRRWIYDTSKLASGIPARFSGSGSGTDYTLTISSMEPEDFATYYCQQWSTNPFTFGQGTKLEIKR |
| 9.59 | 0.002 | 208000 | 6A11-H4K4-IgG1 (antibody, V domains shown) VH: EVQLVESGGGLVQPGGSRRLSCAASGFTFSSFGMHWVRQAPGKGLEWVAYISSGSNTIYYADTVKGRFTISRDNPKNSLYLQMNSLRAEDTAIYYCTRNGYDGWYAMDYWGQGTTVTVSS VL: EIVLTQSPATLSASPGERATLSCSASSSVSYIHWFQQKPGQSPRRWIYDTSKLASGIPARFSGSGSGTSYTLTISSMEPEDAATYYCQQWSTNPFTFGQGTKLEIKR |
| 13.3 | 0.0017 | 128000 | 7E4-H1K3-IgG1 (antibody, V domains shown) VH: QVQLVQSGAEVKKPGASVKVSCKASGFKFTDYAIHWVRQAPGQSLEWMGVISIYYGEASYNQKFKDRVTLTVDTSASTAYMELSSLRSEDTAVYYCAREDYYGSSSYFDYWGQGTLVTVSS VL: ENVLTQSPSFLSASVGDRVTMTCSASSSVSSSYLHWYQQKSGASPKPLIHRTSNLASGVPSRFSGSGSGTEYTLTISSVQPEDFATYYCQQWSGYPYTFGGGTKLEIK |
| 12.7 | 0.00163 | 128000 | 7E4-H2K3-IgG1 (antibody, V domains shown) VH: QVQLVQSGAEVKKPGASVKVSCKASGFKFTDYAIHWVRQAPGKSLEWMGVISIYYGEASYNQKFKDRVTLTVDTSASTAYMELSSLRSEDTAVYYCAREDYYGSSSYFDYWGQGTLVTVSS VL: ENVLTQSPSFLSASVGDRVTMTCSASSSVSSSYLHWYQQKSGASPKPLIHRTSNLASGVPSRFSGSGSGTEYTLTISSVQPEDFATYYCQQWSGYPYTFGGGTKLEIK |
| 19.3 | 0.00299 | 155000 | 7E4-H3K2-IgG1 (antibody, V domains shown) VH: QVQLVQSGAEVVKPGASVKISCKGSGFKFTDYAIHWVRQAPGKSLEWMGVISIYYGEASYNQKFKDKVTLTVDTSASTAYMELSSLRSEDTAIYYCAREDYYGSSSYFDYWGQGTLLTVSS VL: DNVLTQSPSFLSASVGDRVTMTCSASSSVSSSYLHWYQQKPGASPKPLIHRTSNLASGVPSRFSGSGSGTEFTLTISSLQPEDFATYYCQQWSGYPYTFGGGTKLEIK |
| 26.5 | 0.00313 | 118000 | 7E4-H1K1-IgG1 (antibody, V domains shown) VH: QVQLVQSGAEVKKPGASVKVSCKASGFKFTDYAIHWVRQAPGQSLEWMGVISIYYGEASYNQKFKDRVTLTVDTSASTAYMELSSLRSEDTAVYYCAREDYYGSSSYFDYWGQGTLVTVSS VL: DNQLTQSPSFLSASVGDRVTITCSASSSVSSSYLHWYQQKPGAAPKPLIHRTSNLASGVPSRFSGSGSGTEFTLTISSLQPEDFATYYCQQWSGYPYTFGGGTKLEIK |
| 19.8 | 0.0025 | 126000 | 7E4-H1K2-IgG1 (antibody, V domains shown) VH: QVQLVQSGAEVKKPGASVKVSCKASGFKFTDYAIHWVRQAPGQSLEWMGVISIYYGEASYNQKFKDRVTLTVDTSASTAYMELSSLRSEDTAVYYCAREDYYGSSSYFDYWGQGTLVTVSS VL: DNVLTQSPSFLSASVGDRVTMTCSASSSVSSSYLHWYQQKPGASPKPLIHRTSNLASGVPSRFSGSGSGTEFTLTISSLQPEDFATYYCQQWSGYPYTFGGGTKLEIK |
| 4.64 | 0.00266 | 573000 | 23-2A6-mHvKv-IgG1-N297A (antibody, V domains shown) VH: QVQLKESGPGLVAPSQSLSITCTVSGFSLTSYDISWIRQPPGKGLEWLGAIWTGGGTNYNSAFMSRLSISKDNSKSQVFLKMNSLQTDDTAIYYCVRDPYYYAMDYWGQGTSVTVSS VL: DIQMNQSPSSLSASLGDTITITCHASQNLNVWLSWYQQKPGNIPKLLIYKASNLHTGVPSRFSGSGSGTGFTLTISSLQPEDIATYYCQQGQSYPRTFGGGTKLEIK |
